Test results taken from article doi:10.1101/589119.

Biological target: core Cascade subunits (crRNA, Cas11, Cas7, Cas5, Cas6e) (E. coli K12) (UniProt Q46899)
Assay: single-particle tracking PALM

UniProt Q46899, sequence (Q46899 whole entry, looked up): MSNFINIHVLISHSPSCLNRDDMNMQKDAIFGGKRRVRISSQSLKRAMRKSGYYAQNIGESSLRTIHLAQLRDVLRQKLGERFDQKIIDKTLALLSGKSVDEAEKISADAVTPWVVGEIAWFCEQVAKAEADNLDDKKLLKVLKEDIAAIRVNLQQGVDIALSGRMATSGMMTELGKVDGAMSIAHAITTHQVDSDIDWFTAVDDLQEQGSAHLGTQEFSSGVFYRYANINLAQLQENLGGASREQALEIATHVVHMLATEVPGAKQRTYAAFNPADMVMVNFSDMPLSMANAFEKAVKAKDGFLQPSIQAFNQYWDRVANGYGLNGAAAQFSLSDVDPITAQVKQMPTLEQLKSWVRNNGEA

PAmCherry2-Cas8e (Cascade subunit Cas8e with a photoactivatable fluorescent protein fused to its N-terminus) (natural protein)
fraction of Cas8e in Cascade complexes: 60%
